We go through 1 molecule from patent US20070123452A1, “Method of selecting novel immunosuppressant” (Astellas Pharma Inc., priority 2002, published 2007).

Test [1] has as its system IL-2 transcription (human IL-2 promoter). The experiment in a line: IL-2 reporter gene assay in Jurkat cells. Format: cell-based. As to the method: To 1 μg of the plasmid pGL3 IL2 Pro43, which has a human IL-2 promoter sequence (the −674 to +54 region in the vicinity of the transcription initiation site) upstream of the firefly luciferase gene, and 6 μg of pRL-TK (Promega), the plasmids for the expression of wild-type HDAC4 or each of HDAC4 dominant negative variants (H802K, H803L, H863L) prepared in Example 3 was mixed in various ratios (1, 3 and 10 μg), and 1×10^7 Jurkat cells (ATCC, TIB-152) were transformed by the electroporation method (BIO-RAD, Gene Pulser II, voltage 300 V, charge 975 μF, 400 μL).
After transformation, 2.5 mL of RPMI 1640 containing 10% FBS (MOREGATE) (10% FBS RPMI 1640) was added, and this mixture was dispensed to a 96-well white plate in a ratio of 50 μL/well. After cultivation under conditions of 37° C., 5% CO2 and saturated humidity for 10 hours, a liquid mixture of Phorbol 12-Myristate 13-Acetate (PMA, SIGMA), Ionomycin (SIGMA) and Anti-CD28 antibody (Pharmingen) in 10% FBS RPMI 1640 was added at 50 μL/well (the final concentrations were 50 ng/mL, 1 μg/mL and 75 ng/mL, respectively) to stimulate the Jurkat cells. After cultivation under conditions of 37° C., 5% CO2 and saturated humidity for 12 hours, luciferase activity in the cells was measured according to the manual of the Bright-Glo Luciferase Assay System (Promega) using a multi-label counter (1420 MULTILABEL COUNTER ARVO SX, WALLAC).
1×10^7 Jurkat cells (ATCC, TIB-152) were transformed with 10 μg of a plasmid for the expression of various HDACs or HDAC variants by the electroporation method (BIO-RAD, Gene Pulser II, voltage 300 V, charge 975 μF, 400 μL). […] After cultivation under conditions of 37° C., 5% CO2 and saturated humidity for 12 hours, luciferase activity in cells were measured according to the manual of the Bright-Glo Luciferase Assay System (Promega), and IL-2 transcriptional activity was measured using a multi-label counter (1420 MULTILABEL COUNTER ARVO SX, WALLAC).
A mixture of four kinds of HDAC4-targeted siRNA, i.e., siGENE HDAC4 SMARTpool (manufactured by Dharmacon Inc., marketed by B-Bridge international Inc., code number M-003497-00-05), or Non-specific Control Duplex IX (47% GC content) (manufactured by Dharmacon Inc., marketed by B-Bride international Inc., code number D-001206-09-20), and pGL3 IL2 Pro43 were transfected to Jurkat cells by the electroporation method using the same conditions as those mentioned above, and IL-2 transcriptional activity was measured. Likewise, siGENE HDAC4 SMARTpool or Non-specific Control Duplex IX, and pGL3-HSI-IE Pro were transfected to HEL cells, and GATA-1 transcriptional activity was measured. […]
For orientation: A reporter such as luciferase makes a cellular process visible.

The test system of test [2] is GATA-1 transcription (human GATA-1 promoter). Put plainly: GATA-1 reporter gene assay in HEL cells. Format: cell-based. Particulars: 10 μg expression plasmid. As to the method: Using 15 μg of pGL3-HSI-IE Pro and 10 μg of a plasmid for the expression of various HDACs or HDAC variants, 8.75×10^6 HEL cells (accession number JCRB0062, JCRB) were transformed by the electroporation method (BIO-RAD, Gene Pulser II, voltage 1750 V, charge 10 μF, 365 μL). After transformation, 2 mL of 10% FBS RPMI 1640 was added, and this mixture was dispensed to a 96-well white plate in a ratio of 50 μL/well. After cultivation under conditions of 37° C., 5% CO2 and saturated humidity for 3 hours, 10% FBS RPMI 1640 medium was added at 50 μL/well. After cultivation under conditions of 37° C., 5% CO2 and saturated humidity for 8 hours, luciferase activity in cells were measured according to the manual of the Bright-Glo Luciferase Assay System, and GATA-1 transcriptional activity was measured using a multi-label counter.
A mixture of four kinds of HDAC4-targeted siRNA, i.e., siGENE HDAC4 SMARTpool (manufactured by Dharmacon Inc., marketed by B-Bridge international Inc., code number M-003497-00-05), or Non-specific Control Duplex IX (47% GC content) (manufactured by Dharmacon Inc., marketed by B-Bride international Inc., code number D-001206-09-20), and pGL3 IL2 Pro43 were transfected to Jurkat cells by the electroporation method using the same conditions as those mentioned above, and IL-2 transcriptional activity was measured. […]

The subject of test [3] is N-CoR and HDAC3. The experiment in a line: Complex forming ability, anti-Flag purification and Western blotting. The test is classed as binding, human. The conditions noted are these: expressed in PEAK Rapid cells; compared to wild-type HDAC4.

B1: HDAC4 dominant negative variant (H863L): HDAC4 variant with H863L mutation, amino acid sequence SEQ ID NO:6, expressed from plasmid (protein, listed as Homo sapiens)
chain: MSSQSHPDGLSGRDQPVELLNPARVNHMPSTVDVATALPLQVAPSAVPMDLRLDHQFSLPVAEPALREQQLQQELLALKQKQQIQRQILIAEFQRQHEQLSRQHEAQLHEHIKQQQEMLAMKHQQELLEHQRKLERHRQEQELEKQHREQKLQQLKNKEKGKESAVASTEVKMKLQEFVLNKKKALAHRNLNHCISSDPRYWYGKTQHSSLDQSSPPQSGVSTSYNHPVLGMYDAKDDFPLRKTASEPNLKLRSRLKQKVAERRSSPLLRRKDGPVVTALKKRPLDVTDSACSSAPGSGPSSPNNSSGSVSAENGIAPAVPSIPAETSLAHRLVAREGSAAPLPLYTSPSLPNITLGLPATGPSAGTAGQQDTERLTLPALQQRLSLFPGTHLTPYLSTSPLERDGGAAHSPLLQHMVLLEQPPAQAPLVTGLGALPLHAQSLVGADRVSPSIHKLRQHRPLGRTQSAPLPQNAQALQHLVIQQQHQQFLEKHKQQFQQQQLQMNKIIPKPSEPARQPESHPEETEEELREHQALLDEPYLDRLPGQKEAHAQAGVQVKQEPIESDEEEAEPPREVEPGQRQPSEQELLFRQQALLLEQQRIHQLRNYQASMEAAGIPVSFGGHRPLSRAQSSPASATFPVSVQEPPTKPRFTTGLVYDTLMLKHQCTCGSSSSHPEHAGRIQSIWSRLQETGLRGKCECIRGRKATLEELQTVHSEAHTLLYGTNPLNRQKLDSKKLLGSLASVFVRLPCGGVGVDSDTIWNEVHSAGAARLAVGCVVELVFKVATGELKNGFAVVRPPGHHAEESTPMGFCYFNSVAVAAKLLQQRLSVSKILIVDWDVHHGNGTQQAFYSDPSVLYMSLLRYDDGNFFPGSGAPDEVGTGPGVGFNVNMAFTGGLDPPMGDAEYLAAFRTVVMPIASEFAPDVVLVSSGFDAVEGHPTPLGGYNLSARCFGYLTKQLMGLAGGRIVLALEGGHDLTAICDASEACVSALLGNELDPLPEKVLQQRPNANAVRSMEKVMEIHSKYWRCLQRTTSTAGRSLIEAQTCENEEAETVTAMASLSVGVKPAEKRPDEEPMEEEPPL
modifications: Dominant negative mutant (H863L) of human histone deacetylase-4 (HDAC4) gene
For the molecule B1, the “IL-2 transcriptional activity (luciferase)” value in test [1] (Jurkat cells stimulated with PMA, Ionomycin, Anti-CD28 antibody, expression plasmid 1, 3 and 10 μg) was “IL-2 transcription suppression depending on the expression level”; in test [1] (Jurkat cells, 10 μg expression plasmid, compared with HDAC1 and HDAC3 variants), “IL-2 transcription suppression was observed”. For the same molecule, the “GATA-1 transcriptional activity (luciferase)” value in test [2] is “GATA-1 transcription suppression was not observed”. For the same molecule, in test [3], the “HDAC3 and N-CoR in the crudely purified fraction (complex forming ability)” value was “contained almost no HDAC3 or N-COR”.
